From paper PMC4154873, “Delineation of Interfaces on Human Alpha-Defensins Critical for Human Adenovirus and Human Papillomavirus Inhibition” (PLoS Pathogens, 2014)
Where a SMILES comes first, the peptide text is derived from it. Bridges are numbered along the chain shown (N, C = ends).

Columns and labels:
AdV5.eGFP [1] = conditions: cited from earlier work
[2] = target: rPenton, recombinant penton capsomere of human AdV-5 fiber and penton base (human AdV-5); test: SPR
[3] = target: T1, rPenton (fiber and penton base) (Human adenovirus C serotype 5, UniProt P11818+P12538); test: biochemical; assay type: binding, human AdV-5; conditions: for Kd: SPR Biacore T200, CM5 chip, 2115 RU rPenton, 25°C, HBS EP+ pH 7.4, steady-state fit of RU at 80 sec association, 3 µM to 111 nM, best-fit ± SE
T1 construct: enterokinase recognition site 5′ of the full-length human AdV5 penton base (PB) gene; The baculovirus expression system was used to generate full-length human AdV-5 fiber; enterokinase recognition site (pRSET-A leader) (N); 6xHis followed by Tev protease recognition site (N, cleaved yes); made in house; host or cells: PB: E. coli BL21-CodonPlus (DE3)-RIPL; fiber: HighFive insect cells (baculovirus)
T1 sequence (P11818 whole entry): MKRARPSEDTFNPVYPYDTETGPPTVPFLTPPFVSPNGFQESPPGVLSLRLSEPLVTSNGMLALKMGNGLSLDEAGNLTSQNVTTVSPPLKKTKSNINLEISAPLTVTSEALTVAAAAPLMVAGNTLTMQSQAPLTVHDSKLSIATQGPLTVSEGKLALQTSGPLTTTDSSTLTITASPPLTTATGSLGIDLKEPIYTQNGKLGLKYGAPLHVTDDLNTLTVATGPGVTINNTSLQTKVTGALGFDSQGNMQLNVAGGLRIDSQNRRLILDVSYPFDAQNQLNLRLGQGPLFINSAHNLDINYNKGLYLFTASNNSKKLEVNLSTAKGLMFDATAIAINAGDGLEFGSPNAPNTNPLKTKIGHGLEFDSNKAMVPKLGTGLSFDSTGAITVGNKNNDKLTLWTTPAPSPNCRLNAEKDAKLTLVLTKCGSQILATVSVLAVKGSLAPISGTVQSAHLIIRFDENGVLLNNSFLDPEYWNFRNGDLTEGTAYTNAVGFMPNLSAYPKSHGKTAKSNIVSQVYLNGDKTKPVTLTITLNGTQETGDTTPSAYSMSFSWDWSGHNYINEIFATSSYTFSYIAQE
T1 sequence (P12538 whole entry): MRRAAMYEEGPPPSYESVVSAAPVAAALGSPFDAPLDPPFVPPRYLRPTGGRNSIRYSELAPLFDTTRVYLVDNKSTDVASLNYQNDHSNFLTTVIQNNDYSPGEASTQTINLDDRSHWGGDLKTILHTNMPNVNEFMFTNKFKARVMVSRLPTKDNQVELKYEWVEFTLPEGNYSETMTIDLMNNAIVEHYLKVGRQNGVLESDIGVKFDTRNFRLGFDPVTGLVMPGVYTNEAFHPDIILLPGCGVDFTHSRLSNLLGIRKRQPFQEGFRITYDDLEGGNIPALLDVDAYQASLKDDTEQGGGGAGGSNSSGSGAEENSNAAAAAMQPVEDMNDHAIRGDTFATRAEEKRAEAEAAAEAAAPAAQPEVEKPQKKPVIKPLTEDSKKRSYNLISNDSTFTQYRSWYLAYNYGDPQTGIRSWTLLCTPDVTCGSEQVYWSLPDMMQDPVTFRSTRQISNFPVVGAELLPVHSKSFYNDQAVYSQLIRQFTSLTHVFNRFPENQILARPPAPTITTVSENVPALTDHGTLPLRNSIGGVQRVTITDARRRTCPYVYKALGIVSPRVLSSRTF
Protocol: (§1) Experiments were performed on a Biacore T200 system (Biacore, GE Healthcare) at 25°C in HBS EP+ running buffer (9.5 mM HEPES, 142.5 mM NaCl, 2.85 mM EDTA, 0.05% surfactant P20, pH 7.4). The first flow cell on a CM5 sensor chip was reserved to measure background binding, while additional cells were used to immobilize fiber, PB, and rPenton by amine-coupling chemistry. A target density of 2000 resonance units (RU) was selected for rPenton, and for Figure 3D, an equal number of fiber (708 RU) and PB (1292 RU) were also targeted for immobilization. The final RUs immobilized were: 2115 RU rPenton, 889 RU fiber, and 1061 RU PB. Analyte was injected to the flow cells at a rate of 11 µl/min and binding was measured for 3 min, followed by measuring dissociation for 5 min in analyte-free running buffer. The flow cells were regenerated with two 30 s pulses of 10 mM HCl at 11 µl/min separated by 30 s in running buffer. After regeneration, the flow cells were stabilized in running buffer for 2 min before injection of the next analyte. Data analysis was performed using Biacore T200 evaluation software and Prism (version 5.0d).
Affinity (KD) and Bmax were derived by fitting RU values at 80 s post-injection using the Steady State Surface Bound Affinity model in Biacore T200 Evaluation software. Stoichiometry (Sm) of HD5 bound to rPenton at saturation was calculated using the following equation: [drawing 1] (1)

AdV5.eGFP [4] = test: Neutralization of AdV5.eGFP pre-bound to A549 cells before addition of HNP1; assay type: cell-based, human AdV-5; conditions: virus pre-bound to cells, versus wild type HNP1
Protocol: A549 cell monolayers were infected with serial dilutions of AdV5.eGFP in black wall, clear bottom 96-well plates (Perkin-Elmer, San Jose, CA). Total monolayer fluorescence was quantified with a Typhoon 9400 variable mode imager (GE Healthcare, Piscataway, NJ) 24–30 h post-infection. A virus concentration producing 50–80% maximal signal was chosen for inhibition studies.
Serum-free DMEM (SFM) alone or containing increasing concentrations of wild type or mutant HD5 was incubated with purified AdV5.eGFP for 45 min on ice. The mixture (35 µl/well) was added to a confluent monolayer of A549 cells that had been washed twice in SFM. Cells were then incubated at 37°C for 2 h with rocking, washed, and cultured with complete DMEM for 24–30 h. Plates were scanned for eGFP signal as above, and background-subtracted total well fluorescence was quantified using ImageJ software [36]. […] For assays with HNP1, virus alone in SFM was pre-incubated on a confluent monolayer of A549 cells with rocking for 45 min at 4°C. Cells were then washed twice with chilled SFM, and SFM alone or containing increasing concentrations of wild type or mutant HNP1 was added. Cells were incubated for 45 min at 4°C and then shifted to 37°C. After 2 h, cells were washed twice with complete media and incubated a further 24–30 h at 37°C until eGFP signal was quantified as above.

[5] = target: human AdV-5 penton base (human AdV-5); test: SEC; analytical size exclusion chromatography, Superdex 200 10/300 GL; data not shown
[6] = target: human AdV-5 fiber (human AdV-5); test: immunoblot of samples heated or not before SDS-PAGE; fiber samples heated or not for 5 min to 95°C, 4D2 anti-fiber mAb; data not shown
[7] = target: human AdV-5 fiber (human AdV-5); test: SEC; analytical size exclusion chromatography, Superdex 200 10/300 GL; data not shown
fiber = test: SPR binding to immobilized fiber; set-up: species or system human AdV-5; conditions: CAR-Ig at 35 nM, 889 RU fiber
Protocol: as §1

penton base (PB) = test: SPR binding to immobilized penton base; set-up: species or system human AdV-5; conditions: CAR-Ig at 35 nM, 1061 RU PB
Protocol: as §1

Chain of rPenton, recombinant penton capsomere of human AdV-5 fiber and penton base (human AdV-5) (P11818 whole entry, chain 1 of 2): as the sequence (P11818 whole entry) above
Chain of rPenton, recombinant penton capsomere of human AdV-5 fiber and penton base (human AdV-5) (P12538 whole entry, chain 2 of 2, further chain): as the sequence (P12538 whole entry) above

Question: With human neutrophil peptide 1 [HNP1] as the molecule, how does the “Ability to neutralize AdV infection compared to HD5 (in words)” value (AdV5.eGFP [1]) read?
Answer: The value was “reduced ability to neutralize AdV infection”.

Question: With HD5 L29A (peptide) as the molecule, how does the Kd [2] read?
Answer: The Kd was 3.82 µM.

Question: With `CC[C@H](C)[C@@H]1NC(=O)[C@H](CCC(=O)O)NC(=O)[C@@H]2CSSC[C@@H]3NC(=O)[C@H](Cc4ccc(O)cc4)NC(=O)[C@@H](NC(=O)[C@@H](NC(=O)[C@H](C)N)[C@@H](C)O)CSSC[C@@H](C(=O)N[C@@H](CCCNC(=N)N)C(=O)O)NC(=O)[C@H](CSSC[C@H](NC(=O)[C@H](CCCNC(=N)N)NC(=O)CNC(=O)[C@H]([C@@H](C)O)NC(=O)[C@H](CCCNC(=N)N)NC3=O)C(=O)N[C@@H](C)C(=O)N[C@@H]([C@@H](C)O)C(=O)N[C@@H](CCCNC(=N)N)C(=O)N[C@@H](CCC(=O)O)C(=O)N[C@@H](CO)C(=O)N[C@@H](CC(C)C)C(=O)N[C@@H](CO)C(=O)NCC(=O)N[C@@H](C(C)C)C(=O)N2)NC(=O)[C@H](CC(C)C)NC(=O)[C@H](CCCNC(=N)N)NC(=O)[C@H](C)NC(=O)[C@H](CC(C)C)NC(=O)[C@H](CCCNC(=N)N)NC(=O)CNC(=O)[C@H](CO)NC1=O` [Y27A] (H-ATCYCRTGRCATRESLSGVCEISGRLARLCCR-OH; disulfide 3-31, 5-20, 10-30) as the molecule, how does the Kd [3] read?
Answer: The Kd was 3.39 ± 0.27 µM.

Question: Which “Effect of HNP1 mutation on anti-AdV activity (in words)” value (AdV5.eGFP [4]) does the source give for HNP1 W26A here?
Answer: The value was “most deleterious”.

Question: With “human AdV-5 penton base (natural protein)” as the molecule, how does the stoichiometry N [5] read?
Answer: The stoichiometry N was 5.

Question: With HD5 Y27A (peptide) as the molecule, how does the Kd [2] read?
Answer: The Kd was 3.39 µM.

Question: With `CC[C@H](C)[C@@H]1NC(=O)[C@H](CCC(=O)O)NC(=O)[C@@H]2CSSC[C@@H]3NC(=O)[C@H](Cc4ccc(O)cc4)NC(=O)[C@@H](NC(=O)[C@@H](NC(=O)[C@H](C)N)[C@@H](C)O)CSSC[C@@H](C(=O)N[C@@H](CCCNC(=N)N)C(=O)O)NC(=O)[C@H](CSSC[C@H](NC(=O)[C@H](CCCNC(=N)N)NC(=O)CNC(=O)[C@H]([C@@H](C)O)NC(=O)[C@H](CCCNC(=N)N)NC3=O)C(=O)N[C@@H](C)C(=O)N[C@@H]([C@@H](C)O)C(=O)N[C@@H](CCCNC(=N)N)C(=O)N[C@@H](CCC(=O)O)C(=O)N[C@@H](CO)C(=O)N[C@@H](CC(C)C)C(=O)N[C@@H](CO)C(=O)NCC(=O)N[C@@H](C(C)C)C(=O)N2)NC(=O)[C@H](CC(C)C)NC(=O)[C@H](CCCNC(=N)N)NC(=O)[C@H](Cc2ccc(O)cc2)NC(=O)[C@H](CC(C)C)NC(=O)[C@H](CCCNC(=N)N)NC(=O)CNC(=O)[C@H](CO)NC1=O` [HD5, human α-defensin 5, reference compound] (H-ATCYCRTGRCATRESLSGVCEISGRLYRLCCR-OH; disulfide 3-31, 5-20, 10-30) as the molecule, how does the Kd [3] read?
Answer: Its Kd is 1.81 ± 0.22 µM.

Question: For `CC[C@H](C)[C@@H]1NC(=O)[C@H](CCC(=O)O)NC(=O)[C@@H]2CSSC[C@@H]3NC(=O)[C@H](Cc4ccc(O)cc4)NC(=O)[C@@H](NC(=O)[C@@H](NC(=O)[C@H](C)N)[C@@H](C)O)CSSC[C@@H](C(=O)N[C@@H](CCCNC(=N)N)C(=O)O)NC(=O)[C@H](CSSC[C@H](NC(=O)[C@H](CCCNC(=N)N)NC(=O)CNC(=O)[C@H]([C@@H](C)O)NC(=O)[C@H](CCCNC(=N)N)NC3=O)C(=O)N[C@@H](C)C(=O)N[C@@H]([C@@H](C)O)C(=O)N[C@@H](CCCNC(=N)N)C(=O)N[C@@H](CCC(=O)O)C(=O)N[C@@H](CO)C(=O)N[C@@H](CC(C)C)C(=O)N[C@@H](CO)C(=O)NCC(=O)N[C@@H](C(C)C)C(=O)N2)NC(=O)[C@H](C)NC(=O)[C@H](CCCNC(=N)N)NC(=O)[C@H](Cc2ccc(O)cc2)NC(=O)[C@H](CC(C)C)NC(=O)[C@H](CCCNC(=N)N)NC(=O)CNC(=O)[C@H](CO)NC1=O` [L29A] (H-ATCYCRTGRCATRESLSGVCEISGRLYRACCR-OH; disulfide 3-31, 5-20, 10-30), which Kd [3] is on record?
Answer: Its Kd is 3.82 ± 0.3 µM.

Question: For human AdV-5 fiber (natural protein), which stoichiometry N [6] is on record?
Answer: The stoichiometry N was 3.

Question: And the stoichiometry N [7]?
Answer: Its stoichiometry N is 3.

B1: CAR-Ig: soluble form of the AdV receptor fused to the constant region of rabbit Ig (protein)
chain: LSITTPEEMIEKAKGETAYLPCKFTLSPEDQGPLDIEWLISPADNQKVDQVIILYSGDKIYDDYYPDLKGRVHFTSNDLKSGDASINVTNLQLSDIGTYQCKVKKAPGVANKKIHLVVLVKPSGARCYVDGSEEIGSDFKIKCEPKEGSLPLQYEWQKLSDSQKMPTSWLAEMTSSVISVKNASSEYSGTYSCTVRNRVGSDQCLLRLNVVPPSNK
modifications: left off: Fc (rabbit IgG heavy chain), end not stated, kept
Question: Which results are given for B1?
Answer: Binding to immobilized rPenton (in words) [3]: able to bind; Binding to immobilized fiber (in words) (fiber): able to bind; Binding to immobilized PB (in words) (penton base (PB)): unable to bind

B2: human α-defensin 5 (HD5), wild type (peptide)
chain: ATCYCRTGRCATRESLSGVCEISGRLYRLCCR
Question: Which Kd [2] does the source give for B2 here?
Answer: The Kd was 1.81 µM.

Question: And the stoichiometry N [2]?
Answer: The stoichiometry N was 210.
